These results are taken from patent publication US20140212423A1 (AbbVie / Abbott, published 2014).

The target in assay [1] is Repulsive guidance molecule A. Description: cell-based or functional assay.
Assay [2] concerns the target T1, mouse Transferrin Receptor overexpressed on Hek 293 cells (mouse, UniProt Q62351 1-763).
T1 construct: whole, on cells; also called Hek293/mTfR; 293/mTFR
Description: 293/mTFR cell-based assay. On the procedure: (§1) Meso-scale Discovery (MSD) Electrochemiluminescesnce (ECL) assays to screen for antibodies or DVDs that bind a desired target antigen expressed on the cell surface were performed as follows: Hek 293 cells overexpressing mouse Transferin Receptor were added onto MSD 96-well plates (MSD Cat# L11 XB-3, lot#2290-EA) which were blocked using blocking buffer (30% FBS Serum (Hyclone) in PBS) at 37° C. for 1 hr. After incubating at RT for 30 min with mild agitation, plates were washed with DPBS 3 times and Abs/DVDs (10,000 ng/ml) were added. After incubating for 1 hr at RT, plates were washed 3 times with DPBS and 25 ul of Goat anti human Sulfo TAG (MSD Cat# R32AC-, Lot# W001162) at 1 μg/ml is added. Following a 1 h incubation at RT for 1 hr, plates are washed and MSD read buffer is added before reading on MSD SECTOR Imager 6000. EC50 values are obtained using Xlfit4 software package

Assay [3] deals with T1, mouse Transferrin Receptor …. As to the kind of experiment: cell-based MSD-ECL binding on Hek293 cells overexpressing mouse TfR. On the procedure: as §1

As usually defined, the EC50 is the concentration at which the effect is half-maximal.

T1 sequence (Q62351 whole entry): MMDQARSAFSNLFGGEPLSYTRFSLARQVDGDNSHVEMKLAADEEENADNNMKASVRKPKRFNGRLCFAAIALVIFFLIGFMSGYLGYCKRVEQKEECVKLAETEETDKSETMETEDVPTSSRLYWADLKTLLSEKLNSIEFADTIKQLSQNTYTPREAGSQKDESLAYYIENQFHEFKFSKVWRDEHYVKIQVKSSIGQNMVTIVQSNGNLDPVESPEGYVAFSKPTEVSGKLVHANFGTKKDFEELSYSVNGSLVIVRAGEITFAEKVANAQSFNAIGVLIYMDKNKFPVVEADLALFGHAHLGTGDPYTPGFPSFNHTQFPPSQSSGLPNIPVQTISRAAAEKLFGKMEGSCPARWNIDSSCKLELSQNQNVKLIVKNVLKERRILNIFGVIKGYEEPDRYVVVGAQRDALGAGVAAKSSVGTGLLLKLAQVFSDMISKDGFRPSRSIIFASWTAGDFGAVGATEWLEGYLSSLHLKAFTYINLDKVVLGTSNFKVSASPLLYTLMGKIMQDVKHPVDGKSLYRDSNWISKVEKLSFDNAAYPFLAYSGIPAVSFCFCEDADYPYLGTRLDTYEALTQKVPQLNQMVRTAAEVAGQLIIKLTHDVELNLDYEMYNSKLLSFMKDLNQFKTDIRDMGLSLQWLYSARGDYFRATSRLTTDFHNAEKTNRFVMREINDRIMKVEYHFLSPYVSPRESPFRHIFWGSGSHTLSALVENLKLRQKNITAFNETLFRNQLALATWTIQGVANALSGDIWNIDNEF

B1: TfR(AB405)-SL-RGMA(AE12-1) (bispecific antibody)
VH: QVQLVQSGAEVKKPGASVKVSCKASGFTFSNYGMHWIRQAPGQGLEWIAMIYYDSSKMNYADTVKGRFTITRDNSTNTLYMELSSLRSEDTAVYYCAVPTSHYVVDVWGQGTTVTVSSASTKGPEVQLVQSGAEVKKPGASVKVSCKASGYTFTSHGISWVRQAPGQGLDWMGWISPYSGNTNYAQKLQGRVTMTTDTSTSTAYMELSSLRSEDTAVYYCARVGSGPYYYMDVWGQGTLVTVSS
VL: EIVMTQSPATLSVSPGERATLSCQASQDIGNWLAWYQQKPGQSPRLLIYGATSLADGVPARFSGSRSGTEFTLTISSLQSEDFAVYYCLQAYNTPWTFGGGTKVEIKRTVAAPSVFIFPPQSALTQPRSVSGSPGQSVTISCTGTSSSVGDSIYVSWYQQHPGKAPKLMLYDVTKRPSGVPDRFSGSKSGNTASLTISGLQAEDEADYYCCSYAGTDTLFGGGTKVTVLG
notes: DVD-Ig composed from its name; constant regions not assigned
B1: the “BMP Assay (EC50, nM)” value in assay [1] was determined as 0.73 nM. In assay [2], this molecule showed a 50% effective concentration (EC50) of 4.41 nM.

B2: DVD2359 (bispecific antibody)
VH: EVQLLESGGGLVQPGGSLRLSCAASGFTFSNYGMSWVRQAPGKGLEWVASIRSGGGRTYYSDNVKGRFTISRDNSKNTLYLQMNSLRAEDTAVYYCVRYDHYSGSSDYWGQGTLVTVSSASTKGPEVQLVESGGGLVQPGGSLRLSCAASGFTFSNYGMHWIRQAPGKGLEWIAMIYYDSSKMNYADTVKGRFTISRDNAKNSLYLQMNSLRAEDTAVYYCAVPTSHYVVDVWGQGTTVTVSS
VL: DVVMTQSPLSLPVTPGEPASISCKSSQSLLDSDGKTYLNWLLQKPGQSPQRLIYLVSKLDSGVPDRFSGSGSGTDFTLKISRVEAEDVGVYYCWQGTHFPRTFGQGTKVEIKRTVAAPAIQMTQSPSSLSASVGDRVTITCQASQDIGNWLAWYQQKPGKSPKLLIYGATSLADGVPSRFSGSRSGTDFTLTISSLQPEDFATYYCLQAYNTPWTFGGGTKVEIKR
notes: DVD-Ig, outer AB043 (APP), inner AB402 (TfR), HG-short/LK-short; dual variable regions only; constant regions not assigned; also called Aβ(3D6)-SS-AB402 DVD2359; Aβ(3D6)-SS-AB402 DVD-Ig 2359
Turning to B2, the half-maximal effective concentration (EC50) in assay [3] and in assay [2] was 12 nM each time.

B3: DVD2361 (bispecific antibody)
chain 1: EVQLLESGGGLVQPGGSLRLSCAASGFTFSNYGMSWVRQAPGKGLEWVASIRSGGGRTYYSDNVKGRFTISRDNSKNTLYLQMNSLRAEDTAVYYCVRYDHYSGSSDYWGQGTLVTVSSASTKGPEVQLVESGGGLVQPGGSLRLSCAASGFTFSNYGMHWIRQAPGKGLEWIAMIYYDSSKMNYADTVKGRFTISRDNAKNSLYLQMNSLRAEDTAVYYCAVPTSHYVVDVWGQGTTVTVSS
chain 2: DVVMTQSPLSLPVTPGEPASISCKSSQSLLDSDGKTYLNWLLQKPGQSPQRLIYLVSKLDSGVPDRFSGSGSGTDFTLKISRVEAEDVGVYYCWQGTHFPRTFGQGTKVEIKRTVAAPEIVMTQSPATLSVSPGERATLSCQASQDIGNWLAWYQQKPGQSPRLLIYGATSLADGVPARFSGSRSGTEFTLTISSLQSEDFAVYYCLQAYNTPWTFGGGTKVEIKR
B3 yielded an EC50 in assay [3] of 10.7 nM.

B4: DVD1295 (bispecific antibody)
VH: EVQLLESGGGLVQPGGSLRLSCAASGFTFSNYGMSWVRQAPGKGLEWVASIRSGGGRTYYSDNVKGRFTISRDNSKNTLYLQMNSLRAEDTAVYYCVRYDHYSGSSDYWGQGTLVTVSSASTKGPEVQLVESGGGLVQPGNSLTLSCVASGFTFSNYGMHWIRQAPKKGLEWIAMIYYDSSKMNYADTVKGRFTISRDNSKNTLYLEMNSLRSEDTAMYYCAVPTSHYVVDVWGQGVSVTVSS
VL: DVVMTQSPLSLPVTPGEPASISCKSSQSLLDSDGKTYLNWLLQKPGQSPQRLIYLVSKLDSGVPDRFSGSGSGTDFTLKISRVEAEDVGVYYCWQGTHFPRTFGQGTKVEIKRTVAAPDIQMTQSPASLSASLEEIVTITCQASQDIGNWLAWYQQKPGKSPQLLIYGATSLADGVPSRFSGSRSGTQFSLKISRVQVEDIGIYYCLQAYNTPWTFGGGTKLELKR
notes: DVD-Ig, outer AB043 (APP), inner AB221 (TfR), HG-short/LK-short; dual variable regions only; constant regions not assigned
For B4, the response in assay [3] was half-maximal at 3.7 nM (EC50).

B5: DVD1294 (bispecific antibody)
VH: EVQLVESGGGLVQPGNSLTLSCVASGFTFSNYGMHWIRQAPKKGLEWIAMIYYDSSKMNYADTVKGRFTISRDNSKNTLYLEMNSLRSEDTAMYYCAVPTSHYVVDVWGQGVSVTVSSASTKGPEVQLLESGGGLVQPGGSLRLSCAASGFTFSNYGMSWVRQAPGKGLEWVASIRSGGGRTYYSDNVKGRFTISRDNSKNTLYLQMNSLRAEDTAVYYCVRYDHYSGSSDYWGQGTLVTVSS
VL: DIQMTQSPASLSASLEEIVTITCQASQDIGNWLAWYQQKPGKSPQLLIYGATSLADGVPSRFSGSRSGTQFSLKISRVQVEDIGIYYCLQAYNTPWTFGGGTKLELKRTVAAPDVVMTQSPLSLPVTPGEPASISCKSSQSLLDSDGKTYLNWLLQKPGQSPQRLIYLVSKLDSGVPDRFSGSGSGTDFTLKISRVEAEDVGVYYCWQGTHFPRTFGQGTKVEIKR
notes: DVD-Ig, outer AB221 (TfR), inner AB043 (APP), HG-short/LK-short; the entries are the dual variable regions only; constant regions not assigned
In assay [3], B5 returned an EC50 of 0.11 nM.

B6: RGMA (AE12-1) (antibody, V domains shown)
VH: EVQLVQSGAEVKKPGASVKVSCKASGYTFTSHGISWVRQAPGQGLDWMGWISPYSGNTNYAQKLQGRVTMTTDTSTSTAYMELSSLRSEDTAVYYCARVGSGPYYYMDVWGQGTLVTVSS
VL: QSALTQPRSVSGSPGQSVTISCTGTSSSVGDSIYVSWYQQHPGKAPKLMLYDVTKRPSGVPDRFSGSKSGNTASLTISGLQAEDEADYYCCSYAGTDTLFGGGTKVTVLG
Turning to B6, the “BMP Assay (EC50, nM)” value in assay [1] stood at 0.25 nM.

B7: Aβ(3D6)-GS-AB403 (bispecific antibody)
VH: EVQLLESGGGLVQPGGSLRLSCAASGFTFSNYGMSWVRQAPGKGLEWVASIRSGGGRTYYSDNVKGRFTISRDNSKNTLYLQMNSLRAEDTAVYYCVRYDHYSGSSDYWGQGTLVTVSSGGGGSGGGGSEVQLVESGGGLVQPGGSLRLSCAASGFTFSNYGMHWIRQAPGKGLEWIAMIYYDSSKMNYADTVKGRFTISRDNAKNSLYLQMNSLRAEDTAVYYCAVPTSHYVVDVWGQGTTVTVSS
VL: DVVMTQSPLSLPVTPGEPASISCKSSQSLLDSDGKTYLNWLLQKPGQSPQRLIYLVSKLDSGVPDRFSGSGSGTDFTLKISRVEAEDVGVYYCWQGTHFPRTFGQGTKVEIKRGGSGGGGSGEIVMTQSPATLSVSPGERATLSCQASQDIGNWLAWYQQKPGQSPRLLIYGATSLADGVPARFSGSRSGTEFTLTISSLQSEDFAVYYCLQAYNTPWTFGGGTKVEIKR
notes: DVD-Ig composed from its name; Aβ(3D6) = AB043 read from DVD2359; constant regions not assigned; also called Aβ(3D6)-GS-AB403 DVD-Ig
For the molecule B7, the EC50 in assay [2] worked out at 1.98 nM.

B8: TfR(AB405)-LS-RGMA(AE12-1) (bispecific antibody)
chain 1: QVQLVQSGAEVKKPGASVKVSCKASGFTFSNYGMHWIRQAPGQGLEWIAMIYYDSSKMNYADTVKGRFTITRDNSTNTLYMELSSLRSEDTAVYYCAVPTSHYVVDVWGQGTTVTVSSASTKGPSVFPLAPEVQLVQSGAEVKKPGASVKVSCKASGYTFTSHGISWVRQAPGQGLDWMGWISPYSGNTNYAQKLQGRVTMTTDTSTSTAYMELSSLRSEDTAVYYCARVGSGPYYYMDVWGQGTLVTVSS
chain 2: EIVMTQSPATLSVSPGERATLSCQASQDIGNWLAWYQQKPGQSPRLLIYGATSLADGVPARFSGSRSGTEFTLTISSLQSEDFAVYYCLQAYNTPWTFGGGTKVEIKRTVAAPQSALTQPRSVSGSPGQSVTISCTGTSSSVGDSIYVSWYQQHPGKAPKLMLYDVTKRPSGVPDRFSGSKSGNTASLTISGLQAEDEADYYCCSYAGTDTLFGGGTKVTVLG
For the molecule B8, the half-maximal effective concentration (EC50) in assay [2] turned out to be 3.9 nM.

B9: AB405-SL-Aβ(3D6) (bispecific antibody)
VH: QVQLVQSGAEVKKPGASVKVSCKASGFTFSNYGMHWIRQAPGQGLEWIAMIYYDSSKMNYADTVKGRFTITRDNSTNTLYMELSSLRSEDTAVYYCAVPTSHYVVDVWGQGTTVTVSSASTKGPEVQLLESGGGLVQPGGSLRLSCAASGFTFSNYGMSWVRQAPGKGLEWVASIRSGGGRTYYSDNVKGRFTISRDNSKNTLYLQMNSLRAEDTAVYYCVRYDHYSGSSDYWGQGTLVTVSS
VL: EIVMTQSPATLSVSPGERATLSCQASQDIGNWLAWYQQKPGQSPRLLIYGATSLADGVPARFSGSRSGTEFTLTISSLQSEDFAVYYCLQAYNTPWTFGGGTKVEIKRTVAAPSVFIFPPDVVMTQSPLSLPVTPGEPASISCKSSQSLLDSDGKTYLNWLLQKPGQSPQRLIYLVSKLDSGVPDRFSGSGSGTDFTLKISRVEAEDVGVYYCWQGTHFPRTFGQGTKVEIKR
notes: DVD-Ig composed from its name; constant regions not assigned; also called AB405-SL-Aβ(3D6) DVD-Ig
Take B9: it took 4.71 nM to reach a half-maximal effect in assay [2] (EC50).
